The target in assay [1] is thrombin (free thrombin) (human) (UniProt P00734). Kind of assay: discontinuous thrombin inhibition assay, chromogenic substrate; with 5 µg/ml heparin.
The target of the next assay is trypsin. Nature of the assay: discontinuous trypsin inhibition assay, chromogenic substrate SpTH.
Assay [2] has as its target thrombin (free thrombin) (human) (UniProt P00734). Nature of the assay: discontinuous thrombin inhibition assay, chromogenic substrate; no TM.
In another assay the target is Factor Xa (human) (UniProt P00742). Nature of the assay: discontinuous Factor Xa inhibition assay, chromogenic substrate SpFXa.
Factor Xa (human), sequence (P00742 41-179 limits assumed, form in doubt, chain 1 of 2): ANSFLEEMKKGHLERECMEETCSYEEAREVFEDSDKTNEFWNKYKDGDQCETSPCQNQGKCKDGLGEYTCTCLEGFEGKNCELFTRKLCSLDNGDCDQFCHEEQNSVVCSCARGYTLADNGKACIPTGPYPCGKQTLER
Factor Xa (human), sequence (P00742 235-488 limits assumed, form in doubt, chain 2 of 2): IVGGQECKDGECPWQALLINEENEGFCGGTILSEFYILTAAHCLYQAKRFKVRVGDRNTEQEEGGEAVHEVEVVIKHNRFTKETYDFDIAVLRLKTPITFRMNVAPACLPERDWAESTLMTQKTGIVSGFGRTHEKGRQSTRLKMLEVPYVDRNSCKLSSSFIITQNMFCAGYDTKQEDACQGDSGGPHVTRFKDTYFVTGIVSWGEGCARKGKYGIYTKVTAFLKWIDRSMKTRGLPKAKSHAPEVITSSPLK

Consider “AT-neut (antithrombin H-helix mutant Asp309 to Asn, Glu310, 312, 313 to Gln) (from UniProt P01008 33-464)”, for which the second-order rate constant (κ2) of inhibition in assay [1] is 1.4e+06 M⁻¹ s⁻¹; with trypsin, 17000 M⁻¹ s⁻¹; in assay [2], 4100 M⁻¹ s⁻¹; with Factor Xa (human), 990 M⁻¹ s⁻¹.

The record behind these values is patent publication US20010055591A1.
